# In patent US8481333B2 (IDEXX Laboratories, Inc., priority 2011, dated 2013):
# Entries after “also recorded” stand apart in the source; their conditions may differ.
# How the values were obtained:
# feline plasma = conditions: room temperature, up to 192 hours
# [1] = type: in vitro ADME, feline
# Description: For plasma extraction, 100 uL of plasma was precipitated by addition of 200 uL methanol in a 1.5 mL protein LoBind eppendorf tube. After vortexing for 10 seconds, the precipitate was pelleted by centrifugation at 13,000 rpm for 15 minutes at 10° C. using a benchtop centrifuge. The supernatant was transferred to a limited volume glass HPLC vial and analyzed by LC/MS as described in the following examples.
# To characterize the fsNT-proBNP stable degradation products present after incubation in feline plasma, fsNT-proBNP was added to feline plasma at 1, 5, and 10 μg/mL and incubated at room temperature. At 0, 24, 48, 96, and 192 hours, 100 μL aliquots of the plasma were collected and combined with 200 μL of methanol to form a precipitate. After centrifugation, the supernatant was analyzed for stable peptides by LC/MS as described in Example 1.
# The relative abundance of several fragments from the N-terminal, capture, and C-terminal regions were evaluated over time.
Sequence,fragment found (feline plasma),prevalence of polypeptide fragments in plasma [1]
HPLGGPGPASEASAIQELLDGLRDTVSELQEAQMALGPLQQGHSPAESWEAQEEPPARVLAPHDNVLRALRRLGSSKM,"ASEASAIQELLDGLRDTVSEL, major; also recorded: DGLRDTVSEL; also recorded: LDGLRDTVSELQEAQM; also recorded: LGPLQQGHSPAESWEAQEEPPAR; also recorded: LGPLQQGHSPAESWEAQEEPPARVLAPHDNVLR, major; also recorded: LQQGHSPAESWEAQEEPPARVLAPHDNVLR, major; also recorded: VLAPHDNVLR",–
ASEASAIQELLDGLRDTVSEL (Preferred Feline NT-proBNP N-Terminal Peptide Plasma Degradent) [SEQ ID NO: 5],–,most prevalent
LGPLQQGHSPAESWEAQEEPPARVLAPHDNVLR (Preferred Feline NT-proBNP C-Terminal Peptide Plasma Degradent) [SEQ ID NO: 9],–,most prevalent
LQQGHSPAESWEAQEEPPARVLAPHDNVLR (Preferred Feline NT-proBNP C-Terminal Peptide Plasma Degradent) [SEQ ID NO:10],–,most prevalent
